# Article PMC2211785 (The Journal of Experimental Medicine, 2004)
# B1: NFATc2 (natural protein)
# chain: MNAPERQPQPDGGDAPGHEPGGSPQDELDFSILFDYEYLNPNEEEPNAHKVASPPSGPAYPDDVLDYGLKPYSPLASLSGEPPGRFGEPDRVGPQKFLSAAKPAGASGLSPRIEITPSHELIQAVGPLRMRDAGLLVEQPPLAGVAASPRFTLPVPGFEGYREPLCLSPASSGSSASFISDTFSPYTSPCVSPNNGGPDDLCPQFQNIPAHYSPRTSPIMSPRTSLAEDSCLGRHSPVPRPASRSSSPGAKRRHSCAEALVALPPGASPQRSRSPSPQPSSHVAPQDHGSPAGYPPVAGSAVIMDALNSLATDSPCGIPPKMWKTSPDPSPVSAAPSKAGLPRHIYPAVEFLGPCEQGERRNSAPESILLVPPTWPKPLVPAIPICSIPVTASLPPLEWPLSSQSGSYELRIEVQPKPHHRAHYETEGSRGAVKAPTGGHPVVQLHGYMENKPLGLQIFIGTADERILKPHAFYQVHRITGKTVTTTSYEKIVGNTKVLEIPLEPKNNMRATIDCAGILKLRNADIELRKGETDIGRKNTRVRLVFRVHIPESSGRIVSLQTASNPIECSQRSAHELPMVERQDTDSCLVYGGQQMILTGQNFTSESKVVFTEKTTDGQQIWEMEATVDKDKSQPNMLFVEIPEYRNKHIRTPVKVNFYVINGKRKRSQPQHFTYHPVPAIKTEPTDEYDPTLICSPTHGGLGSQPYYPQHPMVAESPSCLVATMAPCQQFRTGLSSPDARYQQQNPAAVLYQRSKSLSPSLLGYQQPALMAAPLSLADAHRSVLVHAGSQGQSSALLHPSPTNQQASPVIHYSPTNQQLRCGSHQEFQHIMYCENFAPGTTRPGPPPVSQGQRLSPGSYPTVIQQQNATSQRAAKNGPPVSDQKEVLPAGVTIKQEQNLDQTYLDDVNEIIRKEFSGPPARNQT
# Biological target: JNK-2 (human (endogenous in HUVEC), UniProt P45984 1-424)
# Experiment: co-IP
binder,measurement,value
B1,fold increase of association by PEDF combined with VEGF or bFGF,> 20 fold
